Experimental findings from article PMC4735526 (Nature Communications, 2016) are described below.

Residue numbers refer to the chain shown, from its start.

To fix the notation:
B1: SRE-4 (ssRNA)
RNA: UUUGGGGGUUCAAUAAAAAUUUUCACUAUCCUAUUAACAGUUCCGCCGCUCC
B2: T-STAR KH-QUA2 domain (amino acids 50-183) (domain or fragment, human, UniProt O75525 50-183, looked up)
chain: INKNMKLGQKVLIPVKQFPKFNFVGKLLGPRGNSLKRLQEETLTKMSILGKGSMRDKAKEEELRKSGEAKYFHLNDDLHVLIEVFAPPAEAYARMGHALEEIKKFLIPDYNDEIRQAQLQELTYLNGGSENADV
notes: T-STAR/SLM2, human, KH and QUA2 domains, residues 50-183; Crystallised with AAUAAU RNA; QUA2 not seen in the electron density; source: E. coli Rosetta BL21 DE3, purified (Ni-NTA, TEV cleavage, size-exclusion chromatography); not shown: His tag (inferred from the Ni-NTA purification)
B3: T-STAR KH domain (amino acids 50-160) (domain or fragment, human, UniProt O75525 50-160, looked up)
chain: INKNMKLGQKVLIPVKQFPKFNFVGKLLGPRGNSLKRLQEETLTKMSILGKGSMRDKAKEEELRKSGEAKYFHLNDDLHVLIEVFAPPAEAYARMGHALEEIKKFLIPDYN
notes: T-STAR/SLM2, human, KH domain, residues 50-160; The free KH structure (5EL3) was phased from a SeMet-labelled KH domain; the complex with AAAUAA is 5ELS; source: E. coli Rosetta BL21 DE3, purified (Ni-NTA, TEV cleavage, size-exclusion chromatography); not shown: His tag (inferred from the Ni-NTA purification)
B4: Sam68 STAR domain (amino acids 97-283) (domain or fragment, human, UniProt Q07666 97-283, looked up)
chain: MEPENKYLPELMAEKDSLDPSFTHAMQLLTAEIEKIQKGDSKKDDEENYLDLFSHKNMKLKERVLIPVKQYPKFNFVGKILGPQGNTIKRLQEETGAKISVLGKGSMRDKAKEEELRKGGDPKYAHLNMDLHVFIEVFGPPCEAYALMAHAMEEVKKFLVPDMMDDICQEQFLELSYLNGVPEPSRG
notes: Sam68 (Src-associated protein in mitosis of 68 kDa), human, STAR domain (QUA1, KH, QUA2), residues 97-283; also called Src-associated protein in mitosis of 68 kDa; source: E. coli Rosetta BL21 DE3, purified (Ni-NTA, TEV cleavage, size-exclusion chromatography); not shown: His tag (inferred from the Ni-NTA purification)
B5: T-STAR STAR domain (amino acids 1-183) (domain or fragment, human, UniProt O75525 1-183, looked up)
chain: MEEKYLPELMAEKDSLDPSFTHALRLVNQEIEKFQKGEGKDEEKYIDVVINKNMKLGQKVLIPVKQFPKFNFVGKLLGPRGNSLKRLQEETLTKMSILGKGSMRDKAKEEELRKSGEAKYFHLNDDLHVLIEVFAPPAEAYARMGHALEEIKKFLIPDYNDEIRQAQLQELTYLNGGSENADV
notes: Crystallised with AUUAAA RNA; QUA2 region not seen in the electron density; also called SLM2; source: E. coli Rosetta BL21 DE3, purified (Ni-NTA, TEV cleavage, size-exclusion chromatography); not shown: His tag (inferred from the Ni-NTA purification)
B6: T-STAR QUA1-KH domain (domain or fragment, human)
chain: MEEKYLPELMAEKDSLDPSFTHALRLVNQEIEKFQKGEGKDEEKYIDVVINKNMKLGQKVLIPVKQFPKFNFVGKLLGPRGNSLKRLQEETLTKMSILGKGSMRDKAKEEELRKSGEAKYFHLNDDLHVLIEVFAPPAEAYARMGHALEEIKKFLIPDYN
notes: T-STAR/SLM2, human, QUA1 and KH domains with the linker between them; by the limits of the STAR (1-183) and KH (50-160) constructs they may be 1-160 (surmised); source: E. coli Rosetta BL21 DE3, purified (Ni-NTA, TEV cleavage, size-exclusion chromatography); not shown: His tag (inferred from the Ni-NTA purification)

One data set addresses T1, T-STAR STAR (UniProt O75525 1-183).
T1 sequence: B5 chain
The experiment in a line: fluorescence polarization; 10 mM Tris pH 7, 100 mM NaCl, 0.1% beta-mercaptoethanol; 0.2 uM fluorescein-labelled RNA; protein 0-200 uM; temperature not stated. In general terms: Fluorescence polarisation rises when a labelled molecule tumbles more slowly, as on binding a larger partner.
CUGGGUGACACACUAGCUAUAGCAUUAAAAGACCGAGCAAGU (ssRNA) [G8.5]: the Kd – broadly, the concentration at which binding is half-saturated – was found to be 11.7 µM.

Regarding UCCGGAUUGGCCUAAAUAGAUGCGCGAUAAUAAUAGAGUA (ssRNA) [G7.1], the Kd was determined as 5.4 µM.

For CCCAAUUAACUAACUAACUAACUUUAAAA (ssRNA) [Nrxn2], the Kd is 1.1 µM.

As for UAAACCC (ssRNA), binding was characterised by a dissociation constant (Kd) of 7 µM.

The molecule UAAACCCCCCCCCCCCCCCUAAA (ssRNA) [UAAA-C15-UAAA] yielded a Kd of 6.7 µM.

B1 gave a Kd of 8.5 µM.

UAAACCCCCUAAA (ssRNA) [UAAA-C5-UAAA] displayed a Kd of 5.9 µM. This Kd and that of the molecule before are within 1.5-fold of each other.

The molecule UAAACCCCCCCCCCUAAA (ssRNA) [UAAA-C10-UAAA] gave a Kd of 7 µM.

A further data set has as its target Sam68 QUA1-KH (UniProt Q07666 97-260). The description is as above.
Molecule CUGGGUGACACACUAGCUAUAGCAUUAAAAGACCGAGCAAGU (ssRNA) [G8.5] came in with a Kd of 10.3 µM.

Turning to AUAAA (ssRNA), the affinity, expressed as Kd, was 55 µM.

In the case of UCCGGAUUGGCCUAAAUAGAUGCGCGAUAAUAAUAGAGUA (ssRNA) [G7.1], the Kd stood at 4.3 µM.

On to CCCAAUUAACUAACUAACUAACUUUAAAA (ssRNA) [Nrxn2], for which binding was put at a Kd of 2.2 µM.

Turning to CUAAA (ssRNA), the Kd was found to be 34 µM.

In turn, AUAAU (ssRNA) returned a Kd of 49 µM.

In turn, UAAACCC (ssRNA) returned a dissociation constant (Kd) of 50 µM. This Kd and that of the molecule before are within 1.5-fold of each other.

In turn, UAAACCCCCCCCCCCCCCCUAAA (ssRNA) [UAAA-C15-UAAA] showed a Kd of 26.3 µM.

For the molecule B1, the affinity, expressed as Kd, was 19.1 µM.

In turn, UAAACCCCCUAAA (ssRNA) [UAAA-C5-UAAA] had a Kd of 42.7 µM.

AAAAA (ssRNA): the Kd turned out to be 13 µM.

Consider UUAAA (ssRNA), for which the equilibrium dissociation constant (Kd) is 50 µM. This Kd is about 3.8-fold higher than that of the molecule before.

UAAACCCCCCCCCCUAAA (ssRNA) [UAAA-C10-UAAA] came in with a Kd of 37.3 µM. The Kd values of the last two molecules are within 1.5-fold of each other.

The next data set has as its target T2, T-STAR QUA1-KH (UniProt O75525 1-160).
T2 sequence: B6 chain
Described as above.
Turning to CUGGGUGACACACUAGCUAUAGCAUUAAAAGACCGAGCAAGU (ssRNA) [G8.5], the equilibrium dissociation constant (Kd) was 8.1 µM.

In the case of AUAAA (ssRNA), the affinity, expressed as Kd, was 37 µM.

The molecule UCCGGAUUGGCCUAAAUAGAUGCGCGAUAAUAAUAGAGUA (ssRNA) [G7.1] displayed a Kd of 4.5 µM.

CCCAAUUAACUAACUAACUAACUUUAAAA (ssRNA) [Nrxn2]: the Kd turned out to be 1.7 µM.

CUAAA (ssRNA): the affinity, expressed as Kd, was 18 µM. Compared with the last molecule, the Kd is about 11-fold higher.

In turn, AUAAU (ssRNA) displayed a Kd of 45 µM.

For AUAAC (ssRNA), the Kd turned out to be 47 µM.

The molecule UAAACCC (ssRNA) returned a Kd of 7.9 µM.

Molecule UAAACCCCCCCCCCCCCCCUAAA (ssRNA) [UAAA-C15-UAAA] yielded a Kd of 6.8 µM.

For B1, the Kd worked out at 9.4 µM.

The molecule UAAACCCCCUAAA (ssRNA) [UAAA-C5-UAAA] registered an equilibrium dissociation constant (Kd) of 5.5 µM. Against the preceding molecule, the Kd is about 1.7-fold lower.

AAAAA (ssRNA) returned a dissociation constant (Kd) of 6 µM.

Regarding UUAAA (ssRNA), binding was characterised by a dissociation constant (Kd) of 16 µM. This Kd is about 2.7-fold higher than that of the molecule before.

With ACAAA (ssRNA), the Kd stood at 55 µM. This Kd lies about 3.4-fold higher than the previous one.

In turn, UAAACCCCCCCCCCUAAA (ssRNA) [UAAA-C10-UAAA] had a Kd of 8.6 µM.

A further data set addresses Sam68 QUA1-KH Y241E (UniProt Q07666 97-260, Y241E). The description is as above.
The molecule UAAACCC (ssRNA) registered a Kd of 27.1 µM.

For UAAACCCCCCCCCCCCCCCUAAA (ssRNA) [UAAA-C15-UAAA], the Kd worked out at 4 µM.

UAAACCCCCUAAA (ssRNA) [UAAA-C5-UAAA] showed a Kd of 4.6 µM. The Kd values of the last two molecules are within 1.5-fold of each other.

With UAAACCCCCCCCCCUAAA (ssRNA) [UAAA-C10-UAAA], the Kd came to 3.9 µM.

The target of the next data set is Sam68 STAR (UniProt Q07666 97-283). The description is as above.
CUGGGUGACACACUAGCUAUAGCAUUAAAAGACCGAGCAAGU (ssRNA) [G8.5] registered a Kd of 36.1 µM.

In turn, UCCGGAUUGGCCUAAAUAGAUGCGCGAUAAUAAUAGAGUA (ssRNA) [G7.1] gave a Kd of 8.2 µM.

Regarding CCCAAUUAACUAACUAACUAACUUUAAAA (ssRNA) [Nrxn2], the Kd was 3.7 µM.

Molecule B1 had a Kd of 65.7 µM.

Another data set has as its target T3, T-STAR QUA1-KH Y141E (UniProt O75525 1-160, Y141E).
T3 sequence: B6 chain with Y141E
The data set is described as above.
As for UAAACCC (ssRNA), binding was characterised by a dissociation constant (Kd) of 10.9 µM.

With UAAACCCCCCCCCCCCCCCUAAA (ssRNA) [UAAA-C15-UAAA], the Kd worked out at 4.7 µM.

UAAACCCCCUAAA (ssRNA) [UAAA-C5-UAAA] had an equilibrium dissociation constant (Kd) of 5.3 µM.

As for UAAACCCCCCCCCCUAAA (ssRNA) [UAAA-C10-UAAA], the Kd came out at 4.4 µM.

Another data set deals with T4, T-STAR STAR Y141E (UniProt O75525 1-183, Y141E).
T4 sequence: B5 chain with Y141E
Described as above.
UAAACCC (ssRNA) displayed a Kd of 6.8 µM.

UAAACCCCCCCCCCCCCCCUAAA (ssRNA) [UAAA-C15-UAAA]: the Kd came out at 4.7 µM.

As to UAAACCCCCUAAA (ssRNA) [UAAA-C5-UAAA], the Kd was 5.1 µM.

With UAAACCCCCCCCCCUAAA (ssRNA) [UAAA-C10-UAAA], binding was put at a Kd of 4.9 µM.

The next data set deals with the molecule itself. The experiment in a line: crystal structure; T-STAR constructs in complex with short RNAs (protein/RNA 1:2), sitting drop vapour diffusion at 4 °C; protein in 10 mM Tris pH 7.0, 50 mM NaCl.
For the molecule B2, the binding result was “binds”.

For the molecule B3, the binding result is “binds”.

In the next data set the target is Sam68 QUA1-KH domain (human). The experiment in a line: SAXS; 25 °C, 1-20 mg/ml protein in the NMR buffers, in the absence and presence of AAAUAA RNA (10 mg/ml protein, protein/RNA 1:1); molecular weights from Porod volumes.
On to “Sam68 QUA1-KH domain (domain or fragment)”, for which the stoichiometry N (usually the number of molecules, sites or subunits per partner or assembly) came out at 2.

A further data set concerns the molecule itself. Described as above.
For B4, the “stoichiometry N” value is 2.

On to B5, for which the “stoichiometry N” value amounted to 2.

B6: the “stoichiometry N” value came to 2.

For a further data set, the target named is T2, T-STAR QUA1-KH. Description: X-ray crystallography; FP: 10 mM Tris pH 7, 100 mM NaCl, 0.1% beta-mercaptoethanol, 0.2 uM fluorescein-RNA, protein 0-200 uM, temperature not stated; NMR 303 K: Sam68 in 10 mM Tris pH.
UAAU (ssRNA): the binding result was “binds”.

The target in a further data set is T5, T-STAR KH (UniProt O75525 50-160).
T5 sequence: B3 chain
The description is as above.
As to AAAUAA (ssRNA), the binding result was “binds”.

The target of the next data set is T6, T-STAR KH-QUA2 (UniProt O75525 50-183).
T6 sequence: B2 chain
The data set is described as above.
Take AAUAAU (ssRNA): the binding result is given as “binds”.
